# According to US20170307628A1 (EIDGENOESSISCHE TECHNISCHE HOCHSCHULE ZURICH, published 2017):
# B1: anti-CD3 antibody (COVA489) (antibody, human IgG1, kappa, V domains shown)
# VH: QVQLQQSGAELARPGASVKMSCKASGYTFTRSTMHWVKQRPGQGLEWIGYINPSSAYTNYNQKFKDKATLTADKSSSTAYMQLSSLTSEDSAVYYCASPQVHYDYNGFPYWGQGTLVTVSA
# VL: QVVLTQSPAIMSAFPGEKVTMTCSASSSVSYMNWYQQKSGTSPKRWIYDSSKLASGVPARFSGSGSGTSYSLTISSMETEDAATYYCQQWSRNPPTFGGGTKLQITR
# Biological target: T1, EGFR on cells (UniProt P00533 25-1210, limits assumed)
# T1 construct: whole, on cells; also called epidermal growth factor receptor
# Assay: flow cytometry on MDA-MB-468 cells, anti-human-Alexa 488
binder,measurement,value
B1,binding result,no binding (tested: 100 nM)
